Source: US20260308269 (published 2026)

T1: human CD98hc (human)
T1 chain: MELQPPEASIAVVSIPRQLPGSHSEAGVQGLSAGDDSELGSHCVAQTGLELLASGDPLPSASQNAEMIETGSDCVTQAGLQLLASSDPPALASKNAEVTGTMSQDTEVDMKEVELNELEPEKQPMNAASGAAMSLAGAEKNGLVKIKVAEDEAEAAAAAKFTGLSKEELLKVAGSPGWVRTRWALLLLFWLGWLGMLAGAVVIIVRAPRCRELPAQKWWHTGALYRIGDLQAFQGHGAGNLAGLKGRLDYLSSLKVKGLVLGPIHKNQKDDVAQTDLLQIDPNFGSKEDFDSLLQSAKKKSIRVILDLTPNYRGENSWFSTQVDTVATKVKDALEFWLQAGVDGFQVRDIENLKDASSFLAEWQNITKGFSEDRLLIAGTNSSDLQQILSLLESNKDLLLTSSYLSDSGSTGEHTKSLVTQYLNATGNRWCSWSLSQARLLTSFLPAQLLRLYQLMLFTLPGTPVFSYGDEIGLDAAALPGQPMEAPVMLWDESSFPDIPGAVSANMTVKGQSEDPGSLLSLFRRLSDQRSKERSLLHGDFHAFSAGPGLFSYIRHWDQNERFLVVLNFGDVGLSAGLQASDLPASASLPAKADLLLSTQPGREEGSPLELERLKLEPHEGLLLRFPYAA

T2: human TfR apical domain (human)
T2 chain: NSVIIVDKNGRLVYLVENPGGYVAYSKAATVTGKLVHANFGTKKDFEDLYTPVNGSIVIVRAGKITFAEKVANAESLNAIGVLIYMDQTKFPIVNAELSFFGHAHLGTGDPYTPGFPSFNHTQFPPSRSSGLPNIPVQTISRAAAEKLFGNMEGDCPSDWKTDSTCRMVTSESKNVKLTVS

B1: LLB1-3-16 (protein)
chain: APELLGGPSVFLFPPKPKDTLMISRTPEVTCVVVDVSHEDPEVKFNWYVDGVEVHNAKTKPREEQYNSTYRVVSVLTVLHQDWLNGKEYKCKVSNKALPAPIEKTISKAKGQPREPQVYTLPPSRDELTKNQVSLTCLVKGFYPSDIAVEWRTYKPYETNYKTTPPVLDSDGSFFLYSKLTVDKSRWQQGDIFVCDVLHEALHNHFTIKKLSLSPGK
B2: LLB1-3-16-2 (protein)
chain: APELLGGPSVFLFPPKPKDTLMISRTPEVTCVVVDVSHEDPEVKFNWYVDGVEVHNAKTKPREEQYNSTYRVVSVLTVLHQDWLNGKEYKCKVSNKALPAPIEKTISKAKGQPREPQVYTLPPSRDELTKNQVSLTCLVKGFYPSDIAVEWRTYKPYETNYKTTPPVLDSDGSFFLYSKLTVDKSRWQQGDIFVCDVMHEALHNHFTIKKLSLSPGK
B3: LLB2-10-8-d6 (protein)
chain: APELLGGPSVFLFPPKPKDTLMISRTPEVTCVVVDVSHEDPEVKFNWYVDGVEVHNAKTKPREEQYNSTYRVVSVLTVLHQDWLNGKEYKCKVSNKALPAPIEKTISKAKGQPREPQVYTLPPSRDELTKNQVSLTCLVKGFYPSDIAVLWNSRFVLENNYKTTPPVLDSDGSFFLYSKLTVDKSRWQQGNVFACNVYHEALHNHYTFKNLALSPGK
B4: 35.d1.19 (protein)
chain: ASTKGPSVFPLAPSSKSTSGGTAALGCLVKDYFPEPVTVSWNSGALTSGVHTFPAVLQSSGLYSLSSVVTVPSSSLGTQTYICNVNHKPSNTKVDKKVEPKSCDKTHTCPPCPAPELLGGPSVFLFPPKPKDTLMISRTPEVTCVVVDVSHEDPEVKFNWYVDGVEVHNAKTKPREEQYNSTYRVVSVLTVLHQDWLNGKEYKCKVSNKALPAPIEKTISKAKGQPREPQVYTLPPSRDELTKNQVSLTCLVKGFYPSDIAVEWESFGTEWVNYKTTPPVLDSDGSFFLYSKLTVSKSEWQQGYVFSCSVMHEALHNHYTQKSLSLSPELQLEESCAEAQDGELDGLWTT
B5: 35.d1.15 (protein)
chain: ASTKGPSVFPLAPSSKSTSGGTAALGCLVKDYFPEPVTVSWNSGALTSGVHTFPAVLQSSGLYSLSSVVTVPSSSLGTQTYICNVNHKPSNTKVDKKVEPKSCDKTHTCPPCPAPELLGGPSVFLFPPKPKDTLMISRTPEVTCVVVDVSHEDPEVKFNWYVDGVEVHNAKTKPREEQYNSTYRVVSVLTVLHQDWLNGKEYKCKVSNKALPAPIEKTISKAKGQPREPQVYTLPPSRDELTKNQVSLTCLVKGFYPSDIAVEWESYGTEWSNYKTTPPVLDSDGSFFLYSKLTVSKSEWQQGYVFSCSVMHEALHNHYTQKSLSLSPELQLEESCAEAQDGELDGLWTT
B6: 35.d1.23 (protein)
chain: ASTKGPSVFPLAPSSKSTSGGTAALGCLVKDYFPEPVTVSWNSGALTSGVHTFPAVLQSSGLYSLSSVVTVPSSSLGTQTYICNVNHKPSNTKVDKKVEPKSCDKTHTCPPCPAPELLGGPSVFLFPPKPKDTLMISRTPEVTCVVVDVSHEDPEVKFNWYVDGVEVHNAKTKPREEQYNSTYRVVSVLTVLHQDWLNGKEYKCKVSNKALPAPIEKTISKAKGQPREPQVYTLPPSRDELTKNQVSLTCLVKGFYPSDIAVEWESYGTEWTNYKTTPPVLDSDGSFFLYSKLTVSKEEWQQGFVFSCSVMHEALHNHYTQKSLSLSPELQLEESCAEAQDGELDGLWTT
B7: 35.d1.22 (protein)
chain: ASTKGPSVFPLAPSSKSTSGGTAALGCLVKDYFPEPVTVSWNSGALTSGVHTFPAVLQSSGLYSLSSVVTVPSSSLGTQTYICNVNHKPSNTKVDKKVEPKSCDKTHTCPPCPAPELLGGPSVFLFPPKPKDTLMISRTPEVTCVVVDVSHEDPEVKFNWYVDGVEVHNAKTKPREEQYNSTYRVVSVLTVLHQDWLNGKEYKCKVSNKALPAPIEKTISKAKGQPREPQVYTLPPSRDELTKNQVSLTCLVKGFYPSDIAVEWESYGNEWSNYKTTPPVLDSDGSFFLYSKLTVSKEEWQQGFVFSCSVMHEALHNHYTQKSLSLSPELQLEESCAEAQDGELDGLWTT
B8: 35.d1.1 (protein)
chain: ASTKGPSVFPLAPSSKSTSGGTAALGCLVKDYFPEPVTVSWNSGALTSGVHTFPAVLQSSGLYSLSSVVTVPSSSLGTQTYICNVNHKPSNTKVDKKVEPKSCDKTHTCPPCPAPELLGGPSVFLFPPKPKDTLMISRTPEVTCVVVDVSHEDPEVKFNWYVDGVEVHNAKTKPREEQYNSTYRVVSVLTVLHQDWLNGKEYKCKVSNKALPAPIEKTISKAKGQPREPQVYTLPPSRDELTKNQVSLTCLVKGFYPSDIAVEWESYGNEWSSYKTTPPVLDSDGSFFLYSKLTVTKSEWQQGFVFSCSVMHEALHNHYTQKSLSLSPELQLEESCAEAQDGELDGLWTT
B9: 35.d1.5 (protein)
chain: ASTKGPSVFPLAPSSKSTSGGTAALGCLVKDYFPEPVTVSWNSGALTSGVHTFPAVLQSSGLYSLSSVVTVPSSSLGTQTYICNVNHKPSNTKVDKKVEPKSCDKTHTCPPCPAPELLGGPSVFLFPPKPKDTLMISRTPEVTCVVVDVSHEDPEVKFNWYVDGVEVHNAKTKPREEQYNSTYRVVSVLTVLHQDWLNGKEYKCKVSNKALPAPIEKTISKAKGQPREPQVYTLPPSRDELTKNQVSLTCLVKGFYPSDIAVEWESYGNEWSSYKTTPPVLDSDGSFFLYSKLTVSKSEWQQGFVFSCSVMHEALHNHYTQKSLSLSPELQLEESCAEAQDGELDGLWTT
B10: 35.d1.6 (protein)
chain: ASTKGPSVFPLAPSSKSTSGGTAALGCLVKDYFPEPVTVSWNSGALTSGVHTFPAVLQSSGLYSLSSVVTVPSSSLGTQTYICNVNHKPSNTKVDKKVEPKSCDKTHTCPPCPAPELLGGPSVFLFPPKPKDTLMISRTPEVTCVVVDVSHEDPEVKFNWYVDGVEVHNAKTKPREEQYNSTYRVVSVLTVLHQDWLNGKEYKCKVSNKALPAPIEKTISKAKGQPREPQVYTLPPSRDELTKNQVSLTCLVKGFYPSDIAVEWESYGTEWTSYKTTPPVLDSDGSFFLYSKLTVSKSEWQQGFVFSCSVMHEALHNHYTQKSLSLSPELQLEESCAEAQDGELDGLWTT
B11: 35.d1.14 (protein)
chain: ASTKGPSVFPLAPSSKSTSGGTAALGCLVKDYFPEPVTVSWNSGALTSGVHTFPAVLQSSGLYSLSSVVTVPSSSLGTQTYICNVNHKPSNTKVDKKVEPKSCDKTHTCPPCPAPELLGGPSVFLFPPKPKDTLMISRTPEVTCVVVDVSHEDPEVKFNWYVDGVEVHNAKTKPREEQYNSTYRVVSVLTVLHQDWLNGKEYKCKVSNKALPAPIEKTISKAKGQPREPQVYTLPPSRDELTKNQVSLTCLVKGFYPSDIAVEWESYGTEWTNYKTTPPVLDSDGSFFLYSKLTVSKSEWQQGFVFSCSVMHEALHNHYTQKSLSLSPELQLEESCAEAQDGELDGLWTT
B12: 35.d1.2 (protein)
chain: ASTKGPSVFPLAPSSKSTSGGTAALGCLVKDYFPEPVTVSWNSGALTSGVHTFPAVLQSSGLYSLSSVVTVPSSSLGTQTYICNVNHKPSNTKVDKKVEPKSCDKTHTCPPCPAPELLGGPSVFLFPPKPKDTLMISRTPEVTCVVVDVSHEDPEVKFNWYVDGVEVHNAKTKPREEQYNSTYRVVSVLTVLHQDWLNGKEYKCKVSNKALPAPIEKTISKAKGQPREPQVYTLPPSRDELTKNQVSLTCLVKGFYPSDIAVEWESYGTEWTSYKTTPPVLDSDGSFFLYSKLTVTKSEWQQGFVFSCSVMHEALHNHYTQKSLSLSPELQLEESCAEAQDGELDGLWTT
B13: 35.d1.4 (protein)
chain: ASTKGPSVFPLAPSSKSTSGGTAALGCLVKDYFPEPVTVSWNSGALTSGVHTFPAVLQSSGLYSLSSVVTVPSSSLGTQTYICNVNHKPSNTKVDKKVEPKSCDKTHTCPPCPAPELLGGPSVFLFPPKPKDTLMISRTPEVTCVVVDVSHEDPEVKFNWYVDGVEVHNAKTKPREEQYNSTYRVVSVLTVLHQDWLNGKEYKCKVSNKALPAPIEKTISKAKGQPREPQVYTLPPSRDELTKNQVSLTCLVKGFYPSDIAVEWESFGTEWSSYKTTPPVLDSDGSFFLYSKLTVSKSEWQQGFVFSCSVMHEALHNHYTQKSLSLSPELQLEESCAEAQDGELDGLWTT
B14: 35.d1.3 (protein)
chain: ASTKGPSVFPLAPSSKSTSGGTAALGCLVKDYFPEPVTVSWNSGALTSGVHTFPAVLQSSGLYSLSSVVTVPSSSLGTQTYICNVNHKPSNTKVDKKVEPKSCDKTHTCPPCPAPELLGGPSVFLFPPKPKDTLMISRTPEVTCVVVDVSHEDPEVKFNWYVDGVEVHNAKTKPREEQYNSTYRVVSVLTVLHQDWLNGKEYKCKVSNKALPAPIEKTISKAKGQPREPQVYTLPPSRDELTKNQVSLTCLVKGFYPSDIAVEWESYGTEWSSYKTTPPVLDSDGSFFLYSKLTVTKSEWQQGYVFSCSVMHEALHNHYTQKSLSLSPELQLEESCAEAQDGELDGLWTT
B15: 35.d1.16 (protein)
chain: ASTKGPSVFPLAPSSKSTSGGTAALGCLVKDYFPEPVTVSWNSGALTSGVHTFPAVLQSSGLYSLSSVVTVPSSSLGTQTYICNVNHKPSNTKVDKKVEPKSCDKTHTCPPCPAPELLGGPSVFLFPPKPKDTLMISRTPEVTCVVVDVSHEDPEVKFNWYVDGVEVHNAKTKPREEQYNSTYRVVSVLTVLHQDWLNGKEYKCKVSNKALPAPIEKTISKAKGQPREPQVYTLPPSRDELTKNQVSLTCLVKGFYPSDIAVEWESFGNEWSNYKTTPPVLDSDGSFFLYSKLTVSKSEWQQGFVFSCSVMHEALHNHYTQKSLSLSPELQLEESCAEAQDGELDGLWTT

Biological target: T1, human CD98hc
Assay: SPR
With B1 the Kd was 0.032 µM. B2 was tested, and the Kd was 0.175 µM. With B3 the Kd was 0.55 µM.

Biological target: T2, human TfR apical domain
Assay: SPR
Work on B4 yielded a Kd of 16 µM. In the case of B5, the Kd is reported as 3.6 µM. For B6, the Kd was 3.5 µM. In the case of B7, the Kd is reported as 5.2 µM. Work on B8 yielded a Kd of 6.2 µM. Work on B9 yielded a Kd of 13.6 µM. B10 was tested, and the Kd was 11.2 µM. For B11, the Kd was 11.7 µM. In the case of B12, the Kd is reported as 4.3 µM. With B13 the Kd was 1.4 µM. In the case of B14, the Kd is reported as 1.3 µM. For B15, the Kd was 35.6 µM.
